Where “and” joins values, the source holds several entries; their conditions need not be identical. Equal values may be shown once.
Experiments:
[1] = system: cysteine gingipain in dogs gingival pockets; conditions: as disclosed in PL 428931; cited from earlier work
[2] = system: cysteine gingipain in gingival pocket fluids; assay: In vitro inhibition of cysteine gingipain activity in human gingival pocket fluids by egg white cystatin (BANA substrate); type: biochemical; conditions: Table 6
Method: (§1) A solution containing known cystatin from egg white with a concentration of 0.02% and activity of 12 U/mg and 20% glycerin was used to rub the gums of dogs (once a day) and added 0.2 ml to a bowl with 200 ml drinking water (1 mU)/ml cystatin) for 4-6 weeks. Liquids from gingival pockets were removed using plaque paper, which was placed in 1 ml saline and frozen at −80° C., before removing plaque calculus. Then, after the aforementioned cystatin therapy from egg white, fluids from the gingival pockets were taken again in an analogous manner and frozen. After obtaining the desired amount of samples, they were thawed, sonicated, centrifuged to then determine the activity of cysteine gingipain in 100 μL samples using a BANA substrate (Benzoyl-arginyl-beta-naphthylamide). Test samples with a volume of 100 μl were preincubated at 37° C. in 0.01 M phosphate buffer pH 6.0 with the addition of 1 μM DL-cysteine and 2 μM EDTA for 10 minutes, then a solution of N-benzoyl DL-arginyl hydrochloride-β-naphthylamide (BANA) so that its final concentration in the test sample was 1.5 mM, and then incubated under these conditions for 30 minutes. After this time, the reaction was stopped by determining the colorimetrically released β-naphthylamine.
As one unit of enzymatic activity of cysteine proteinases is the amount of enzyme which releases 1.0 nmole of β-naphthylamine from the substrate within one hour under the described incubation conditions, whereas as an inhibitor unit—the amount that inhibits 1 enzyme unit.
Patients with periodontitis were taken from the gingival pockets before removing the plaque using tissue strips, which were placed in 1 ml of saline and then frozen at −80° C. […] The solution was sonicated, centrifuged and 100 μl of supernatant was taken for determinations. Various amounts of cystatin were added to the test solution, and then the protease activity was determined by the BANA test as in Example 1.

[3] = system: cysteine gingipain in gingival pocket fluids; conditions: as disclosed in PL 428931; cited from earlier work
Porphyromonas gingivalis = conditions: concentration of 50 WI; cited from earlier work
[4] = system: cysteine gingipain in gingival pocket fluids; assay: In vivo inhibition of cysteine gingipain activity in dogs (gums rubbed and drinking water with cystatin)
Method: as §1
Standard tests for which the final result was determined were prepared in parallel with the tested samples, which were solutions containing all components as in the actual tests, except that after adding the BANA substrate the reactions were immediately stopped and the colorimetrically determined free β-naphthylamine was determined. As one unit of enzymatic activity of cysteine proteinases is the amount of enzyme which releases 1.0 nmole of β-naphthylamine from the substrate within one hour under the described incubation conditions, whereas as an inhibitor unit—the amount that inhibits 1 enzyme unit.

[5] = system: cysteine gingipain in gingival pocket fluids; assay: Inhibition of cysteine gingipain activity in gingival pocket fluids of patients with periodontitis (BApNA substrate); type: biochemical, human; conditions: not exceeded even with excess inhibitor
Method: In gingival pocket fluids, cysteine gingipain activity was determined as the amount of p-nitroaniline released from BApNA (Benzoyl-DL Arginyl-para-nitroanilide) substrates, or Z-Arg-Arg-pNA (Benzol-DLArg-Arg-β-p-nitroanilide).
The amount of cysteine peptidases that was used as enzymatic activity was that led to the degradation of the substrates used and release of micromoles of p-nitroaniline from them within 1 minute at 37° C.
Inhibition was performed in 10 fluid samples from gingival pockets taken from patients diagnosed with periodontitis.
Determination of gingipain activity in fluids taken from gingival pockets: Fluid from the gingival pockets is taken with small strips of cellulose paper, which are placed in a tube containing 1 ml of PBS. The solution is sonicated for 30 sec on ice, then centrifuged at 10,000 g for 10 min.
To 1 ml of 20 mM pH 6.0 phosphate buffer containing 2 mM EDTA and 1 mM DTT is added 100 μl gingipain solution, then 20-100 μL inhibitor solution is added, and 20 μL BApNA substrate solution (Benzoyl DL Arginyl para-nitroanilide) 40/mg/ml DMSO. […] Absorbance is measured at 405 nm on a spectrophotometer relative to the control (without inhibitors and papain). Gingipain activity is measured by the amount of para-nitroaniline released.

[6] = system: cysteine gingipain in dogs gingival pockets; assay: In vitro inhibition of cysteine proteases in gingival pocket fluid of dogs (BANA); type: biochemical; design: key to Cysteine gingipain activity after adding cystatin: enzyme units; 1 U releases 1.0 nmol β-naphthylamine per hour; conditions: 40 ng cystatin
Method: as §1
Standard tests for which the final result was determined were prepared in parallel with the tested samples, which were solutions containing all components as in the actual tests, except that after adding the BANA substrate the reactions were immediately stopped and the colorimetrically determined free β-naphthylamine was determined. […]
Before periodontal removal, dogs with periodontal disease collected fluid from the gingival pockets using tissue strips that were placed in 1 mL of saline. […] Various amounts of cystatin were added to the test solution, and then the protease activity was determined using the BANA substrate as in Example 1.

[7] = Storage stability of inhibitory activity; type: physicochemical; conditions: about 4° C.
Description: The protein fractions are combined and the whole is subjected to separation on a membrane permeable compounds of a certain size. Because at this stage the interest is focused on the isolation of peptides and not cystatins, the combined protein fractions were not stabilized with glycerol or other glycols. The main reason for not using a stabilizer is the high probability of blocking the filters used in the separation stage. The combined protein fractions (eluate from the affinity chromatography column) are filtered as quickly as possible using membrane permeable to 3 kDa molecules, and then the low molecular filtrate is desalted on membrane permeable to 700 Da. […] The resulting low molecular weight oligopeptides are able to inhibit cysteine peptidase enzymes such as autogenic cathepsins or bacterial enzymes. The low molecular weight cysteine peptidase inhibitors of the invention thus obtained are stored either in a refrigerator (+4° C.) or in a freezer.
Inhibitory activity of cystatin and several-amino acid inhibitors of cysteine peptidases were determined in relation to cysteine gingipain in gingival pocket fluids and cysteine cathepsins in cancerous tissues and veins of people with atherosclerosis or native cathepsin B.

[8] = system: cysteine gingipain in gingival pocket fluids; assay: Dog case study, cystatin in drinking water and gum rubbing; type: in vivo; conditions: one dog
Method: A female mixed breed, weighing about 5 kg and 7 years old, became dejected and avoided food, staggered and turned over, and purulent discharge leaked from her nose. […] In dormancy, the stone was removed along with four molars on the left. During sleep, gingival pocket fluids were removed from 3 gingival pockets on the right using strips of paper and placed in tubes containing 1 ml of saline. After grinding the paper with ultrasound and centrifugation, the activity of cysteine gingipain was determined in solutions. Their activity ranged from 1.35 to 0.89 units based on 1.0 ml of liquid based on the amount of β-naphthylamine released. For 4 weeks, the dog was given water to drink with the addition of cystatin from egg protein at a concentration of about 10-6% and rubbed the gums with a pad impregnated with 0.001% cystatin from egg white 3-4 times a day. […] After 6 years of surgery, there were no changes in the periodontium. After some time, the dog got used to rubbing his gums, which probably saved him from changes in the periodontium.

chicken embryo = assay: Toxicity in chicken embryo studies; type: in vivo
[9] = individual samples 1-11, after 4-6 weeks cystatin treatment vs before plaque removal, listed as cystatin solution from egg white

B1: cystatin from egg white: known cystatin from egg white, activity 12 U/mg, stabilized with glycerol; natural cysteine peptidase inhibitor (protein, UniProt P01038 24-139, looked up)
Cystatin: SEDRSRLLGAPVPVDENDEGLQRALQFAMAEYNRASNDKYSSRVVRVISAKRQLVSGIKYILQVEIGRTTCPKSSGDLQSCEFHDEPEMAKYTTCTFVVYSIPWLNQIKLLESKCQ
blocked total proteolytic activity, dogs [1]: about 90%
E/F*100 inhibited activity, Average ([2]; average of 23 samples): 15.89 ± 6.28%
CP activity after adding cystatin ([2]; individual samples 1-23): 0.47 U/ml (3×) and 0.61 U/ml and 1.16 U/ml and 0.98 U/ml (2×) and 1.12 U/ml (2×) and 0.75 U/ml and 0.34 U/ml and 0.87 U/ml and 1.22 U/ml and 1.11 U/ml and 2.19 U/ml and 2.52 U/ml and 1.97 U/ml and 3.96 U/ml and 2.18 U/ml and 3.11 U/ml and 1.28 U/ml and 2.74 U/ml and 1.73 U/ml
E/F*100 inhibited activity ([2]; individual samples 1-23): 18.29% and 28.11% and 10.59% and 10.08% and 26.86% and 18.94% and 9.63% and 5.67% and 11.03% and 14.79% and 10.68% and 14.30% and 8.99% and 14.76% and 11.46% and 21.57% and 24.84% and 24.00% and 22.20% and 24.47% and 13.87% and 20.10% and 16.83%
blocked proteolytic activity in the gingival pocket fluid, humans [3]: about 85%
elimination of bacteria from an infected area (Porphyromonas gingivalis): up to 50%
% inhibited activity, Average ([4]; average of 11 samples): Approximately 67%
% remaining activity, Average ([4]; average of 11 samples): 32.97 ± 21.49%
% inhibited activity, Average ([4]; average of 11 samples, listed as cystatin solution from egg white): 67.05 ± 21.52%
% inhibited activity [4, 9]: 94.79% and 77.31% and 79.23% and 58.9% and 64.33% and 93.50% and 24.24% and 81.26% and 67.68% and 54.78% and 41.55%
% remaining activity [4, 9]: 5.51% and 22.69% and 20.77% and 41.10% and 35.67% and 6.50% and 75.76% and 18.73% and 32.32% and 45.22% and 58.45%
inhibition of proteolytic activity in gingival pocket fluids compared to total activity [5]: 85%
% inhibited activity, Average ([6]; average of 19 dogs): 87.28 ± 8.92%
% remaining activity, Average ([6]; average of 19 dogs): 12.72 ± 8.92%
Cysteine gingipain activity after adding cystatin ([6]; dogs gingival pocket fluid, individual samples 1-19, 12 units/mg protein): 0.06 (2×) and 0.04 (3×) and 0.03 (3×) and 0.08 and 0.02 (2×) and 0.07 (2×) and 0.09 and 0.15 and 0.24 and 0.13 (2×) and 0.23
inhibitory activity after storage for several months in the refrigerator [7]: dimerizes and loses its biological activity
change of gingipain activity in gingival pocket fluids ([8]; 4 weeks cystatin in water and gum rubbing 3-4 times a day, sampled after 3 months): reduced almost five-fold
tartar build-up and gum redness ([8]; after 3 months): no tartar build-up or redness in the gums
toxicity relative to 0.02% chlorhexidine (chicken embryo): about 105 times lower
